In patent US20110280881A1 (RIKEN, published 2011):

Legend:
mouse HSP90β (NP-032328) = target: T1, mouse HSP90β (NP-032328) (mouse, UniProt P11499 2-724); assay: antibody bound to living DC2.4 cells, lysis, Protein G-Sepharose, blot
T1 construct: whole, on cells; also called cell surface HSP90β
Method: (§1) Mammalian HSP90 occurs in two isoforms: HSP90α and β. The following experiment was performed to determine whether not only HSP90α but also HSP90β is recognized by the antibody of the present invention. […] After being thoroughly washed to remove the unreacted antibody, the cells were lysed; the lysate was centrifuged at 10,000×g, and the resulting supernatant was incubated along with Protein G-Sepharose. The bound material was subjected to SDS-PAGE, after which blotting was performed using an anti-HSP90α antibody (SPS-771, Assay designs), an anti-HSP90β antibody (PB-118-P1, Neomarkers), or an antibody that recognizes both HSP90α and β (6B1C4, another antibody obtained in Example 1).

mouse HSP90α (NP-034610) = target: T2, mouse HSP90α (NP-034610) (mouse, UniProt P07901 2-733); assay: as above
T2 construct: whole, on cells; also called cell surface HSP90α
Method: as §1

T1 sequence (P11499 2-724): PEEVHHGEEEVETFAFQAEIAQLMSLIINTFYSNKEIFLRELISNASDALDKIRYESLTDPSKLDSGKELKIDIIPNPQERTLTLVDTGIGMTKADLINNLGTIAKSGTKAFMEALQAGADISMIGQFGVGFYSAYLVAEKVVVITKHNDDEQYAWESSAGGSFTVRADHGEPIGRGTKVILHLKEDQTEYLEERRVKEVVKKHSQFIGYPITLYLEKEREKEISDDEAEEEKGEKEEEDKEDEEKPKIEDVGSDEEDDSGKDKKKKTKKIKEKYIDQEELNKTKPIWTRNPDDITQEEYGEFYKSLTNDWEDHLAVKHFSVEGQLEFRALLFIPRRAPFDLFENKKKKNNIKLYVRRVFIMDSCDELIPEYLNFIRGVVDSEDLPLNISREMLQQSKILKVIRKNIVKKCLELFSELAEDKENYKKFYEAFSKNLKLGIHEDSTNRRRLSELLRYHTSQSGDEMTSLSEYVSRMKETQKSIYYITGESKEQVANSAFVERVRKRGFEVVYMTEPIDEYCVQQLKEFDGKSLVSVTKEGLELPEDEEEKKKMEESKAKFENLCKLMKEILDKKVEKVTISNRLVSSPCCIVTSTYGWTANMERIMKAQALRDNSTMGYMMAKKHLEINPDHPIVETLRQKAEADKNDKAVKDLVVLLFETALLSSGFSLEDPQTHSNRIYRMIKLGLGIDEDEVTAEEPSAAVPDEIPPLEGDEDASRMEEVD

binding result (mouse HSP90β (NP-032328)): binds | binding result (mouse HSP90α (NP-034610)): binds
B1: 6H8D2 anti-HSP90 monoclonal antibody (hybridoma FERM BP-11222) (antibody, V domains shown)
VH: QVQLQQSGPELVKPGASVRISCKASGYTFTSYYIHWVKQRPGQGLEWIGWIYPGNVNTKYNEKFKGKATLTADKSSSTAYMQLSSLTSEDSAVYFCARYGNYPFAYWGQGTLVTVSA
VL: DVVMTQTPLSLPVSLGDQASISCRSSQSLVHSNGNTYLHWYLQKPGQSPKLLIYKVSNRFSGVPDRFSGSGSGTDFTLKISRVEAEDLGVYFCSQSTHVPPTFGGGTKLEIKR
notes: Mouse monoclonal IgG from a hybridoma; Normal mouse IgG2a served as its control; It was biotinylated for FACS; also called 6H8 antibody; 6H8 mAb
